In publication PMC5663709 one finds EC50 data, which are given here for four substances.

In experiment [1] the target is recombinant hemagglutinin (HA) trimer of H3N2 A/Wisconsin/67/2005, ectodomain (influenza A virus A/Wisconsin/67/2005 (H3N2)). Description: ELISA.
In experiment [2] the target is cell surface-expressed H3N2 WN/05 HA trimer (influenza A virus A/Wisconsin/67/2005 (H3N2)). Description: FACS.
Experiment [3] addresses recombinant hemagglutinin (HA) trimer of H5N1 A/Vietnam/1203/2004, ectodomain (influenza A virus A/Vietnam/1203/2004 (H5N1)) (UniProt Q6DQ33). Description: ELISA.
The target in experiment [4] is recombinant hemagglutinin (HA) trimer of H1N1 A/California/07/2009, ectodomain (influenza A virus A/California/07/2009 (H1N1)) (UniProt C3W5X2). Description: ELISA.
Experiment [5] deals with recombinant hemagglutinin (HA) trimer of H7N9 A/Anhui/1-BALF_RG17/2013, ectodomain (influenza A virus A/Anhui/1-BALF_RG17/2013 (H7N9)). Description: ELISA.

For the substance C05, the EC50 in experiment [1] came to 0.00844 µg/mL; in experiment [2], 0.13 µg/mL.

As to CR8020, the 50% effective concentration (EC50) in experiment [1] was found to be 0.0194 µg/mL; in experiment [2] it was 0.569 µg/mL.

As to F10, the values for the concentration giving a half-maximal response (EC50) in experiment [3] and in experiment [4] were 0.021 µg/mL and 0.0122 µg/mL, respectively.

Take FI6V3: the EC50 in experiment [3] was determined as 0.00648 µg/mL; in experiment [5] it was 0.314 µg/mL; in experiment [4], 0.0107 µg/mL; in experiment [1], 0.0789 µg/mL; in experiment [2], 0.065 µg/mL.
